In US20030099969A1 (published 2003):

T1: Ipaf 1-661
T1 chain: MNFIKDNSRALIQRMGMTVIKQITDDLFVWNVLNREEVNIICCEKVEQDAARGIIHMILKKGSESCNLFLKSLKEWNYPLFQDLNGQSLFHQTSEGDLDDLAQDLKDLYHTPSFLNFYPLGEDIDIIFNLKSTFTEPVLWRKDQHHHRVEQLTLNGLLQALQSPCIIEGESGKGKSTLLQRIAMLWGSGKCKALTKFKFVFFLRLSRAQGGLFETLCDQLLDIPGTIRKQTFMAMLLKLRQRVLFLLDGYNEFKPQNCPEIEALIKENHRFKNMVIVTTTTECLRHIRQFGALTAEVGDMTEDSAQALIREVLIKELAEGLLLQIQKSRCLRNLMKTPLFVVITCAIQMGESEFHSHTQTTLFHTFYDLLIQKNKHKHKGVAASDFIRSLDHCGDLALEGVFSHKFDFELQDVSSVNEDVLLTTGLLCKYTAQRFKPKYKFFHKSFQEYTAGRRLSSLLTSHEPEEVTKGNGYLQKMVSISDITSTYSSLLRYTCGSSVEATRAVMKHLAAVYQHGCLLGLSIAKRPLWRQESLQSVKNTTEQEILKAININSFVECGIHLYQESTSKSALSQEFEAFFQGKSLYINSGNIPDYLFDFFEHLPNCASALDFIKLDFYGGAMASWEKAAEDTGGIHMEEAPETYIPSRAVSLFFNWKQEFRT

T2: T7-tagged full length Ipaf
T2 chain: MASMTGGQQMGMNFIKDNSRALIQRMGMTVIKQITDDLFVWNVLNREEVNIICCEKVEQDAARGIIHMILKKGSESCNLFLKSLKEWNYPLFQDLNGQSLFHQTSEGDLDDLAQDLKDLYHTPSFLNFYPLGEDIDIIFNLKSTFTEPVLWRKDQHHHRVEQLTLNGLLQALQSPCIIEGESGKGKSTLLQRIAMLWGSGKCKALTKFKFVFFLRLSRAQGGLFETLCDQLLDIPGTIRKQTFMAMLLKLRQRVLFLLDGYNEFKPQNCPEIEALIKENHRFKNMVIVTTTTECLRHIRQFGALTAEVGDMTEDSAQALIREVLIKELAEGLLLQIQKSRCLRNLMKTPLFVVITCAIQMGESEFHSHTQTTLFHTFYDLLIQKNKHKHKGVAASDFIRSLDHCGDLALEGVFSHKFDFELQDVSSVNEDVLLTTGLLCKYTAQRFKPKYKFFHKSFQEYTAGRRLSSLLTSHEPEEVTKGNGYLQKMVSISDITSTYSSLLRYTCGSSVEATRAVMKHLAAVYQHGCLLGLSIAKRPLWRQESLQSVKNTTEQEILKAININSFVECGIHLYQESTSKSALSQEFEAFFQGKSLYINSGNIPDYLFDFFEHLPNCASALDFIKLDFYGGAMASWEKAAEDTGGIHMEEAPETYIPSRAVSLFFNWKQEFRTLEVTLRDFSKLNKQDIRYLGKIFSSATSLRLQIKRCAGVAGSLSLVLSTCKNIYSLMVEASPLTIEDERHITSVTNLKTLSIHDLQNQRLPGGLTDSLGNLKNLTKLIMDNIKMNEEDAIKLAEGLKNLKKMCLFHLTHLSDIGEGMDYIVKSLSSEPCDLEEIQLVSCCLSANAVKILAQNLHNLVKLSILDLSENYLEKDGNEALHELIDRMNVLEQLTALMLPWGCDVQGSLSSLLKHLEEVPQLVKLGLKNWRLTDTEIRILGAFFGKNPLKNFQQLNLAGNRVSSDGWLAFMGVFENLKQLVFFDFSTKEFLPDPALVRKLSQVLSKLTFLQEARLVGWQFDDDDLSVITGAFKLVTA


Columns and labels:
Ipaf 1-661 = molecular target: T1, Ipaf 1-661
[1] = molecular target: T2, T7-tagged full length Ipaf
[2] = molecular target: T3, T7-tagged full length Ipaf (human, UniProt Q9NPP4 1-1024); assay: co-immunoprecipitation from 293T lysates (IP anti-Flag, blot anti-T7)
T3 construct: also called T7-Ipaf; T7-tagged Ipaf
Procedure: 24 hours following transfection, cells were lysed in 50 mM Tris/HCl pH 7.6, 150 mM NaCl containing 0.5% NP-40, 10 μg.ml⁻¹ leupeptin and aprotinin and 0.1 mM PMSF and clarified by centrifugation at 15,000 g for 15 min. The clarified lysates were preabsorbed on protein G-Sepharose (Pharmacia) and then incubated with anti-FLAG-M5 monoclonal antibody (Eastman Kodak Co.) for 2 hours, followed by protein G-Sepharose agarose IgG beads. Immune complexes were washed extensively in the lysis buffer and eluted by boiling in an SDS sample buffer. The eluted proteins were resolved by SDS-PAGE and detected by Western analysis with a horseradish peroxidase-conjugate T7-antibody (Novagen). GST Pull-down assays were performed as described (Ahmad et al., Cancer Res 57:615-9, 1997).
24 hours following transfection, cells were lysed and the lysates immunoprecipitated (IP) with an anti-Flag antibody. The immunoprecipitates were immunoblotted (IB) with an anti-T7 antibody. Expression of T7-Ipaf or Flag-tagged constructs was determined by immunoblotting (IB) with anti-T7 or anti-Flag antibodies, respectively. […] This association was dependent on the N-terminal CARD as deletion of this domain prevented the CARD-truncated Ipaf mutant from interacting with the full-length Ipaf. Moreover, the epitope-tagged CARD of Ipaf was able to co-immunoprecipitate the full-length protein.

Row | Binder | proteolytic activation (processing) of procaspase-1, anti-Flag immunoblot of 293T lysates (Ipaf 1-661) | proteolytic activation (processing) of procaspase-1, anti-Flag immunoblot of 293T lysates [1] | binding result [2]
1 | N-terminally Flag-tagged procaspase-1 (protein) DYKDDDDKMADKVLKEKRKLFIRSMGEGTINGLLDELLQTRVLNKEEMEKVKRENATVMDKTRALIDSVIPKGAQACQICITYICEEDSYLAGTLGLSADQTSGNYLNMQDSQGVLSSFPAPQAVQDNPAMPTSSGSEGNVKLCSLEEAQRIWKQKSAEIYPIMDKSSRTRLALIICNEEFDSIPRRTGAEVDITGMTMLLQNLGYSVDVKKNLTASDMTTELEAFAHRPEHKTSDSTFLVFMSHGIREGICGKKHSEQVPDILQLNAIFNMLNTKNCPSLKDKPKVIIIQACRGDSPGVVWFKDSVGVSGNLSLPTTEEFEDDAIKKAHIEKDFIAFCSSTPDNVSWRHPTMGSVFIGRLIEHMQEYACSCDVEEIFRKVRFSFEQPDGRAQMPTTERVTLTRCFYLFPGH | Co-expression of the LRR-truncated Ipaf mutant, but not the full-length protein, was able to induce proteolytic activation of procaspase-1 | Co-expression of the LRR-truncated Ipaf mutant, but not the full-length protein, was able to induce proteolytic activation of procaspase-1 | 
2 | Flag-tagged CARD-deleted mutant (residues 80-1024) of Ipaf (other, also called Flag-?CARD Ipag; CARD-truncated Ipaf mutant) DYKDDDDKLFQDLNGQSLFHQTSEGDLDDLAQDLKDLYHTPSFLNFYPLGEDIDIIFNLKSTFTEPVLWRKDQHHHRVEQLTLNGLLQALQSPCIIEGESGKGKSTLLQRIAMLWGSGKCKALTKFKFVFFLRLSRAQGGLFETLCDQLLDIPGTIRKQTFMAMLLKLRQRVLFLLDGYNEFKPQNCPEIEALIKENHRFKNMVIVTTTTECLRHIRQFGALTAEVGDMTEDSAQALIREVLIKELAEGLLLQIQKSRCLRNLMKTPLFVVITCAIQMGESEFHSHTQTTLFHTFYDLLIQKNKHKHKGVAASDFIRSLDHCGDLALEGVFSHKFDFELQDVSSVNEDVLLTTGLLCKYTAQRFKPKYKFFHKSFQEYTAGRRLSSLLTSHEPEEVTKGNGYLQKMVSISDITSTYSSLLRYTCGSSVEATRAVMKHLAAVYQHGCLLGLSIAKRPLWRQESLQSVKNTTEQEILKAININSFVECGIHLYQESTSKSALSQEFEAFFQGKSLYINSGNIPDYLFDFFEHLPNCASALDFIKLDFYGGAMASWEKAAEDTGGIHMEEAPETYIPSRAVSLFFNWKQEFRTLEVTLRDFSKLNKQDIRYLGKIFSSATSLRLQIKRCAGVAGSLSLVLSTCKNIYSLMVEASPLTIEDERHITSVTNLKTLSIHDLQNQRLPGGLTDSLGNLKNLTKLIMDNIKMNEEDAIKLAEGLKNLKKMCLFHLTHLSDIGEGMDYIVKSLSSEPCDLEEIQLVSCCLSANAVKILAQNLHNLVKLSILDLSENYLEKDGNEALHELIDRMNVLEQLTALMLPWGCDVQGSLSSLLKHLEEVPQLVKLGLKNWRLTDTEIRILGAFFGKNPLKNFQQLNLAGNRVSSDGWLAFMGVFENLKQLVFFDFSTKEFLPDPALVRKLSQVLSKLTFLQEARLVGWQFDDDDLSVITGAFKLVTA |  |  | no binding
